± gives the uncertainty stated by the source.
Test: amyloid nucleation score (Sup35N fusion, yeast selection) (log enrichment); library NNK2; higher = more nucleation; inactive = no reads after selection
In short: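 In psi-negative yeast, Sup35N fusions carrying peptides of 20 random codons were induced with 100 μM copper sulfate for 24 hours. The cells then grew 7 days at 30°C on medium lacking adenine and uracil, and plasmid inserts from input and output were Illumina-sequenced, excluding sequences with under 100 input reads. Nucleation score is the DiMSum log enrichment of output over input reads, centred on the mode score of non-aggregating sequences.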

Substance	amyloid nucleation score
ILGVLGFGGSRDRLSTRWGS	1.66 ± 0.16
ILKGNNSS	-1.2 ± 0.62
ILLFQSAYHKSIEIWGNESF	4.21 ± 0.043
ILLNEVFDRTWSELPGCNCT	0.043 ± 0.21
ILLTFVPAEKSWTSAIL	0.058 ± 0.55
ILNYSWALRVIDFTHRKVFS	-0.376 ± 0.2
ILRCICRNILSSSRVRCSYH	inactive
ILSHTGRVYKLRLYVIQIVR	-0.434 ± 0.61
ILSLMLRSVWRSVLLVLQ	inactive
ILTIALVRFSLSRWRLPWPY	1.36 ± 0.29
ILVHVSFDNRFN	6.06 ± 0.077
ILWDTIREVHVHADMDMAPN	-0.782 ± 0.61
IMMWFYPARTRQELASYEDQ	2.12 ± 0.089
IMNKVAWWIFMRMLSRGFVT	-1.1 ± 0.54
IMPVMLERTGLSGLMCNGWG	-0.315 ± 0.65
IMRCGMLVASKFQGEGRNRT	0.747 ± 0.43
INCFSLLEPLEYFSRLCQQR	-0.276 ± 0.55
INFGWCFYMTRRWVCGMVFR	0.106 ± 1
INGPCVYFNFL	6.425 ± 0.057
INTSELNVFRS	inactive
INVSVFVVFRNRQRLKC	7.363 ± 0.058
IPALN	-0.963 ± 0.55

Substance	amyloid nucleation score
IPASDRYKVFRLWHQFRLVG	-0.001 ± 0.56
IPGVLLTYVIISRAPGGIPD	-0.545 ± 0.64
IPNSGRGWSPAWPKMALTYS	0.746 ± 0.24
IPQEYPSDSMDVVMYISTLV	-0.016 ± 0.79
IPTSYSRPITIWGYR	-1.3 ± 0.64
IPVSMWQDRVTEVLDFGLRK	0.389 ± 0.8
IPYGMSWTWSH	-0.565 ± 0.3
IPYYIDKKQSKMCNGFWS	0.572 ± 0.57
IQKVVIVYSHDVYSDQ	6.737 ± 0.048
IQLDTESSLVKRRAWYG	0.34 ± 0.64
IQRPADRIQHMTMWHTQDLV	1.14 ± 0.37
IQSFVKYKNVSRMYLTCPNL	1.2 ± 0.2
IQTHSSSWG	-0.288 ± 1
IQVMSDMFKCDVTNVMGRRG	2.99 ± 0.094
IRFANVPSRNKFH	0.486 ± 0.36
IRFNAYLRDEDYSKIREVLG	-1.41 ± 0.54
IRGYYYGMRYSDWGSC	-0.06 ± 0.31
IRKALNASVLKLT	1.1 ± 0.36
IRLTRY	-0.338 ± 0.35
IRSKSWVVDTQFRPIDSLLV	0.646 ± 0.49
IRVFSDGAFKTEFTTKATLL	0.328 ± 0.65
IRVGICAVDGPACKRLYSCM	-0.176 ± 0.35

Substance	amyloid nucleation score
IRVRGFPSSHRSV	-0.901 ± 0.78
ISDFQACIRGDRWDEKGYIS	inactive
ISDKSVV	inactive
ISECR	-0.432 ± 1.1
ISFMQGDCRWHQVNSLQRIM	-0.94 ± 0.54
ISFWSHSDTFVGNEGEHSVR	1.29 ± 0.42
ISFYQWRPWNFLRYRRGNAH	0.237 ± 0.31
ISGTHLCSRFYIRYALCGLK	4.66 ± 0.079
ISHISDL	4.61 ± 0.072
ISIVYNSAMSIHHDFLILLC	5.32 ± 0.094
ISNGYPVDRHSWVNILSLT	1.23 ± 0.47
ISPISLTISLLIGYTSGCLR	3.15 ± 0.066
ISPLIG	0.33 ± 0.49
ISSDLWVHSFNTILSENGVC	-0.674 ± 0.63
ISSYEVELDALIVWGDTSSG	0.006 ± 0.49
ISTMSGPFVSRLWYSAYNTA	-0.345 ± 0.64
ISYIIKILRKVVSWDNDMEV	-1.25 ± 0.45
ITINSMSPRLPIRLRVVWKG	inactive
ITPMFPCLVVWWWESR	-0.235 ± 0.61
ITQRFKTWRCGGGDEVRQAN	0.239 ± 0.49
ITYGKVLR	0.379 ± 0.44
ITYLWYISVLYREMPLCCAS	0.237 ± 0.25

Substance	amyloid nucleation score
IVACGCVSVSRRSLP	3.09 ± 0.059
IVCWTMVVDLIVDQMLTAYR	1.03 ± 0.28
IVGHRVLACVRPRRVVTRYG	0.118 ± 0.63
IVHQGLLIRPIDGVGRLTLS	4.05 ± 0.1
IVKFKKRVDRHLSSGDQLVR	1.19 ± 0.61
IVLSDSISQAFWASICHQGF	-1.55 ± 1.1
IVMVPFLTIPVLYLVVMSSL	-0.788 ± 1.1
IVQLWIWGVVPPFSDISHAL	7.866 ± 0.05
IVQSSTAKHEDQVFGKKV	1.24 ± 0.61
IVRRGAYSTGWMVMMLLQSL	0.859 ± 0.8
IVRVIMYLCGNLLVNRWGNA	0.082 ± 1.1
IVSVFQYRTVNIFVGFYYIR	inactive
IVWLMHSSSHRT	5.79 ± 0.076
IWDEQCRTLCGARCNDVSAW	0.799 ± 0.3
IWGCKELLDVRTAQGVDGM	3.87 ± 0.078
IWGGFYS	-1.29 ± 0.75
IWTTYFMGLRT	-0.394 ± 0.78
IYDCDTTMVSNNMRYILVLH	-0.858 ± 0.33
IYKILLLLAGRRGFDCLVFS	-0.926 ± 0.74
IYLCTDSLSYRSFVRGN	1.18 ± 0.17

— the supplement of paper PMC12042874
